Source: patent publication CN112010969A (UNIV NANCHANG, dated 2020)

Target: T1, 增强绿色荧光蛋白 (enhanced green fluorescent protein, EGFP) (Aequorea victoria (engineered mutant), UniProt P42212 1-238 = GFP, limits assumed)
T1 construct: also called EGFP蛋白
Test: biolayer interferometry: nanobody coupled by EDC/s-NHS to AR2G probe, association 300 s, dissociation 120 s in PBS

B1: 高亲和力增强绿色荧光蛋白纳米抗体 (anti-EGFP nanobody), clone 4-28 (VHH)
VHH: QVQLVESGGGLVQPGGSLRLSCAASGSRFSIHTMGWYRQAPGKQRELVATITWGGRQNYADSVKGRFTINRDNDKNTVDLQMDSLKPEDTAVYYCNVRPISNGPDYWGQGTQVTVSS
notes: Alpaca VHH selected by phage display; The purified protein was about 20 kD by SDS-PAGE; also called 抗EGFP纳米抗体; 编号4-28; not shown: Expressed from PET25b in E. coli Rosetta and purified on a nickel column
- Kd: 0.0967 nM
